# Experimental data: patent US20180142222
# Where two headings read alike, the source gives them in different places.
# Assays:
# [1] = target: Cas9HNH (Cy3/Cy5-labelled reporter Cas9; dCas9HNH for binding data) C80S,C574S,S355C,S867C (Streptococcus pyogenes) (UniProt Q99ZW2); settings: direct binding assay estimate
# [2] = target: Cas9hinge (Cy3/Cy5-labelled reporter Cas9) C80S,C574S,D435C,E945C (Streptococcus pyogenes) (UniProt Q99ZW2); settings: bound but (ratio)A indistinguishable from apo
substance,measurement,setting,value
full-length sgRNA ; on-target DNA,binding,[1]; large FRET increase on target DNA,> 89 % bound
sgRNA delta-spacer1-20,binding,[2],> 95 % bound
full-length sgRNA ; PAM-distal mismatch DNA,binding,"[1]; (ratio)A falls with mismatch number, dCas9 gives stable footprint on these substrates",> 89 % bound
